According to patent publication US20210284747A1 (CAPELLA BIOSCIENCE, published 2021):
Residue numbers refer to the chain shown, from its start. Each block holds one binder with its values, some of them ahead of it.

Key:
[1] = target: Full length LIGHT G188A on HEK293FF cells (Homo sapiens (Human), UniProt O43557 1-240); experiment: flow cytometry, HEK293FF, mAb at EC50
[2] = target: Full length LIGHT A190S on HEK293FF cells (Homo sapiens (Human), UniProt O43557 1-240); experiment: flow cytometry, HEK293FF, mAb at EC50
Chain of Full length LIGHT A190S on HEK293FF cells (O43557 whole entry A190S): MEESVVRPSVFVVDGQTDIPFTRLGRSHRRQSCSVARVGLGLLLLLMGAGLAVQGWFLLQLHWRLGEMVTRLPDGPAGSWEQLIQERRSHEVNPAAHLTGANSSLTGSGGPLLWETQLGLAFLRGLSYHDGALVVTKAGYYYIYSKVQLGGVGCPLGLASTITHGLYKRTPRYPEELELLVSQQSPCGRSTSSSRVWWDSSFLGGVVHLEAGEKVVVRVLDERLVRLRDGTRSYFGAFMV

[3] = target: Full length LIGHT V196A on HEK293FF cells (Homo sapiens (Human), UniProt O43557 1-240); experiment: flow cytometry, HEK293FF, mAb at EC50
[4] = target: Full length LIGHT S194A on HEK293FF cells (Homo sapiens (Human), UniProt O43557 1-240); experiment: flow cytometry, HEK293FF, mAb at EC50
Chain of Full length LIGHT S194A on HEK293FF cells (O43557 whole entry S194A): as the sequence (O43557 whole entry A190S) above, with S190A, S194A counted along it

[5] = target: Full length LIGHT S192A on HEK293FF cells (Homo sapiens (Human), UniProt O43557 1-240); experiment: flow cytometry, HEK293FF, mAb at EC50
Chain of Full length LIGHT S192A on HEK293FF cells (O43557 whole entry S192A): as the sequence (O43557 whole entry A190S) above, with S190A, S192A counted along it

[6] = target: Full length LIGHT R189A on HEK293FF cells (Homo sapiens (Human), UniProt O43557 1-240); experiment: flow cytometry, HEK293FF, mAb at EC50
Chain of Full length LIGHT R189A on HEK293FF cells (O43557 whole entry R189A): as the sequence (O43557 whole entry A190S) above, with R189A, S190A counted along it

[7] = target: Full length LIGHT R195A on HEK293FF cells (Homo sapiens (Human), UniProt O43557 1-240); experiment: flow cytometry, HEK293FF, mAb at EC50
Chain of Full length LIGHT R195A on HEK293FF cells (O43557 whole entry R195A): as the sequence (O43557 whole entry A190S) above, with S190A, R195A counted along it

[8] = target: Full length LIGHT S193A on HEK293FF cells (Homo sapiens (Human), UniProt O43557 1-240); experiment: flow cytometry, HEK293FF, mAb at EC50
[9] = target: Full length LIGHT W198A on HEK293FF cells (Homo sapiens (Human), UniProt O43557 1-240); experiment: flow cytometry, HEK293FF, mAb at EC50
Chain of Full length LIGHT W198A on HEK293FF cells (O43557 whole entry W198A): as the sequence (O43557 whole entry A190S) above, with S190A, W198A counted along it

[10] = target: Full length LIGHT T191A on HEK293FF cells (Homo sapiens (Human), UniProt O43557 1-240); experiment: flow cytometry, HEK293FF, mAb at EC50
Chain of Full length LIGHT T191A on HEK293FF cells (O43557 whole entry T191A): as the sequence (O43557 whole entry A190S) above, with S190A, T191A counted along it

[11] = target: Full length LIGHT W197A on HEK293FF cells (Homo sapiens (Human), UniProt O43557 1-240); experiment: flow cytometry, HEK293FF, mAb at EC50
Chain of Full length LIGHT W197A on HEK293FF cells (O43557 whole entry W197A): as the sequence (O43557 whole entry A190S) above, with S190A, W197A counted along it

[12] = target: T1, Human LIGHT-32L, on II23 cells (human, UniProt O43557 1-240); experiment: flow cytometry on II23-LIGHT 32L cells, 4 ug mAb in 100 uL, goat anti-human Fc gamma-PE; signal as % of the commercial anti-LIGHT-PE
T1 construct: also called II23-LIGHT 32L
T1 chain: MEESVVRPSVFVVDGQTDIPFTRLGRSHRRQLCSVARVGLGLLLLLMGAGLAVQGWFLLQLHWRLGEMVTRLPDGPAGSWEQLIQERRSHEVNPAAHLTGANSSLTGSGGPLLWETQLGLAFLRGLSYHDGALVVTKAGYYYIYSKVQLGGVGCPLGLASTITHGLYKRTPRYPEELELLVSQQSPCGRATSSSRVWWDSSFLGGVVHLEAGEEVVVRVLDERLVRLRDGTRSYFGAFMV
Procedure, shortened: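 Cells blocked with anti-CD16/CD32, then stained 30 min at room temperature with 4 ug mAb per 100 uL, followed by 1:100 goat anti-human Fcγ-PE at 4° C. for 30 min. After paraformaldehyde fixation, signal read by flow cytometry.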

[13] = target: T2, Human LIGHT stably expressed on EL4 cells (EL4-LIGHT) (human, UniProt O43557 1-240); experiment: flow cytometry, EL4-LIGHT cells, against F19 and F23
T2 construct: whole, on cells; also called membrane LIGHT

[14] = target: T2, Human LIGHT stably expressed on EL4 …; experiment: KD calculated from the EC50 on EL4-LIGHT cells (Table 7)

Chain of Full length LIGHT G188A on HEK293FF cells (O43557 whole entry G188A): as the sequence (O43557 whole entry A190S) above, with G188A, S190A counted along it

% of WT binding [1]: 6%
% of WT binding [2]: 68%
% of WT binding [3]: 80%
% of WT binding [4]: 0%
% of WT binding [5]: 88%
% of WT binding [6]: 0%
% of WT binding [7]: 1%
% of WT binding [8]: 0%
% of WT binding [9]: 81%
% of WT binding [10]: 2%
% of WT binding [11]: 0%
binding result [12]: binds
binding ratio, mAb to LIGHT trimer [13]: 1 mAb per LIGHT trimer
Kd [14]: 100 pM
B1: 3B04 chimeric IgG4 mAb (antibody, V domains shown)
VH: QVQLQQPGAELVRPGASVTLSCKASGYTFTDYEMHWVKQTPVHGLEWIGEIDPETGDTAYSQKFKGKATLTADKSSSTAYMEFRSLTSEDSAVYYCSRETDYFFDYWGQGTTLTVSS
VL: DIQMTQTPASLSASVGETVTITCGASENIYGALNWYQRKQGKSPQLLIYGATNLADGMSSRFSGSGSGRQYSLKISSLHPDDFATYYCQNVLTTPWTFGGGTKLEIK
notes: also called Parental 3B04

% of WT binding [1]: 20%
% of WT binding [2]: 82%
% of WT binding [3]: 70%
% of WT binding [4]: 2%
% of WT binding [5]: 84%
% of WT binding [6]: 1%
% of WT binding [7]: 25%
% of WT binding [8]: 0%
% of WT binding [9]: 83%
% of WT binding [10]: 8%
% of WT binding [11]: 1%
binding result [12]: binds
binding ratio, mAb to LIGHT trimer [13]: 1 mAb per LIGHT trimer
Kd [14]: 70 pM
B2: 3D12 chimeric IgG4 mAb (antibody, V domains shown)
VH: B1 VH with G26D, Y32S, M34I, D57G, S61N, F83L
VL: B1 VL with T7S, F83V, T93S
notes: Chimeric human IgG4 (S-to-P, L-to-E) with human CL, as m1; also called Parental 3D12; 03D12
